Measurements as given in patent US20260193317A1, “COMBINATION THERAPY WITH ACTRIIB RECEPTOR VARIANTS AND GLP-1 AGONISTS” (35PHARMA Inc., priority 2023, published 2026).

Target: T1, activin A (Homo sapiens, UniProt P08476)
T1 sequence (P08476 311-426): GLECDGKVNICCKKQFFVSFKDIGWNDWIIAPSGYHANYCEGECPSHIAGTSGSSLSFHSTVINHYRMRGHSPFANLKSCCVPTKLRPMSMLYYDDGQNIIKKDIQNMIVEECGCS
Test: Small-scale activin A ELISA with CHO supernatants
Details: 1 μg/mL protein, 30 ng/mL activin A, loss of signal = binding
Experimental: Small-scale testing of ActRIIB-ECD fusion proteins. Additional investigation of a series of exemplary agents was performed using proteins expressed in CHO cells. Briefly, DNA encoding the ActRIIB-ECD-Fc fusion constructs was transfected in cells seeded in 12-well plates in a final volume of 1 ml. After 7 days, the supernatant was harvested, clarified, and the amount of expressed protein in each well was quantified using standard methods. The potency of each agent for inhibition of activin A, BMP-9 and BMP-10 was determined in three separate assays.
The next day, the plate was washed three times with buffer (Biolegend #421601). […] Expressed proteins in the supernatants described above were diluted to 2 μg/mL in assay diluent (0.5% BSA, 0.05% tween-20 in PBS), mixed 1:1 with recombinant human activin A (R&D #338-AC, 60 ng/mL, diluted in assay diluent). Complexes were immediately added to the 96-well plate in technical duplicates and incubated for 1 h at RT (concentration of expressed protein and activin A on the plate were 1 μg/mL and 30 ng/mL, respectively). […] In this assay, a loss of signal indicates binding of the exemplary agent to activin A, which prevents activin A binding to the anti-activin A antibody on the plate. Results are expressed as a % of the signal obtained with wild-type ActRIIB-Fc (P75).

## P1229: hActRIIB L33W, 14 aa linker, IgG1-DL Fc; SEQ ID 211
  activin A binding, ELISA signal relative to P75: potent activin A binding
